± gives the standard error. Variants at the floor of the assay were thinned out.
B1: glmS ribozyme (parent)
chain: AUAAAAGCGCCAGAACUACAGAAAUGUAGUUGACGAGGAGGAGGUUUAUCGAAUUUUCGGCGGAUGCCUCCAAA

How the values were obtained:
Conditions in all cases: with glucosamine-6-phosphate
glucosamine-6-phosphate [1] = variants of: B1; experiment: self-cleavage kobs at 640 uM GlcN6P; higher = faster cleavage; RNA array
How it was run: (§1)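 Tiles of sequenced MiSeq chips were imaged over ~14 h at 37 °C. On them, barcoded ribozyme variants had been transcribed in situ by E. coli RNA polymerase and were tracked via a hybridised Cy3 probe while glucosamine-6-phosphate (40 μM to 10 mM) in HEPES/KCl/Mg(OAc)2 buffer flowed in. Per-tile medians, normalised to baseline and to non-cleaving reference variants, were fit to one- or two-exponential decays for kobs, and weighted Michaelis–Menten fits gave kcat and KM.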

glucosamine-6-phosphate [2] = variants of: B1; experiment: self-cleavage kobs at 2500 uM GlcN6P; higher = faster cleavage; RNA array
How it was run: as §1

glucosamine-6-phosphate [3] = variants of: B1; experiment: self-cleavage kobs at 10000 uM GlcN6P; higher = faster cleavage; RNA array
How it was run: as §1

Variant	self-cleavage kobs at 640 uM GlcN6P (glucosamine-6-phosphate [1]) [s⁻¹]	self-cleavage kobs at 2500 uM GlcN6P (glucosamine-6-phosphate [2]) [s⁻¹]	self-cleavage kobs at 10000 uM GlcN6P (glucosamine-6-phosphate [3]) [s⁻¹]
C11A G35C C50U C58U	< 1e-05	< 1e-05	
A14G C61G G66U C67G	0.000103 ± 2.7e-05		
C16U A53U G66C	9.89e-05 ± 2.1e-05	0.000105 ± 2.8e-05	0.000199 ± 5.3e-05
A14C U30C G38U A39U A53U U55G	< 1e-05	< 1e-05	
A14G C16A U56A	0.00547 ± 0.0015	0.00293 ± 0.0013	
G21U U46G U49C	< 1e-05	< 1e-05	
A6C G38A A52U C70U	< 1e-05		
A14U A36U G38C G62A	< 1e-05		
G38C G60C U65G	< 1e-05		
A12U A15C A48G A52U G66A C70G	< 1e-05		
A12C G41U U46G	8.69e-05 ± 1.8e-05	7.37e-05 ± 2.8e-05	
G38U U47G C68U	0.000119 ± 4e-05		
A12C G29C U30G	0.000163 ± 2.9e-05	0.000329 ± 8.6e-05	
C8U G40U G59U C68U	< 1e-05		
C58A C70A C71A	8.13e-05 ± 2.5e-05	0.000492 ± 0.00012	
A14U U30C U49A C50A C70G	8.96e-05 ± 2.3e-05		
G7A A33G C68G	0.00031 ± 0.00013	6.13e-05 ± 2.5e-05	
C10U G41C G44U U55C C58U	< 1e-05		
G41C G59U C70G	3.61e-05 ± 1.7e-05	0.000118 ± 3.1e-05	0.000122 ± 2.1e-05
U45A G63C	< 1e-05	< 1e-05	
C34G C58U C68G	9.4e-05 ± 2.9e-05		
G9A C11U U54A G59A A64G	< 1e-05	< 1e-05	

Variant	self-cleavage kobs at 640 uM GlcN6P (glucosamine-6-phosphate [1]) [s⁻¹]	self-cleavage kobs at 2500 uM GlcN6P (glucosamine-6-phosphate [2]) [s⁻¹]	self-cleavage kobs at 10000 uM GlcN6P (glucosamine-6-phosphate [3]) [s⁻¹]
A12U G32C U47G C70A	0.0007 ± 0.00018		
G44U G51A C68U	< 1e-05	< 1e-05	
A15C G41C A48G	< 1e-05		
A33G A48C C61A C67G	< 1e-05		< 1e-05
U55G G66A C70G	0.000126 ± 2.1e-05	0.000206 ± 4.7e-05	
G7U U30C U45A C71G	< 1e-05		
U31G C70A	0.000129 ± 2.6e-05	9.72e-05 ± 2.7e-05	0.000372 ± 0.00014
U54A G66A C67A	0.00151 ± 0.00064	0.00163 ± 0.00044	
G38U C58U C67U C70U C71A	9.38e-05 ± 3.9e-05		
A12U A15U C34G U47A	< 1e-05		
G7A A39U A53C A64C	< 1e-05		
G37C G40A C50G	< 1e-05	< 1e-05	
G32C G35C U47C C58U	< 1e-05		
G44C U47G	< 1e-05		
C8U A48G A64G	< 1e-05		
C10U A33U U56C C68A	< 1e-05		
G13A G44U	< 1e-05	< 1e-05	
C8A A12G G32A	< 1e-05		< 1e-05
C8U A15C C16G U30C	< 1e-05		
A12U A14C G29C	4.97e-05 ± 2e-05	0.000232 ± 7.7e-05	
A12U U31G G41U	0.00016 ± 5.9e-05	0.000471 ± 0.00018	
G13C G43A U49G A52G	< 1e-05	< 1e-05	

Variant	self-cleavage kobs at 640 uM GlcN6P (glucosamine-6-phosphate [1]) [s⁻¹]	self-cleavage kobs at 2500 uM GlcN6P (glucosamine-6-phosphate [2]) [s⁻¹]	self-cleavage kobs at 10000 uM GlcN6P (glucosamine-6-phosphate [3]) [s⁻¹]
G29C U31C G35U	< 1e-05	< 1e-05	
G9A C11U G29C G35U G59C	< 1e-05	< 1e-05	
C8U G43A U54C	< 1e-05		
G32A G37U A48C G66C	< 1e-05		
A36C U57C C67U	< 1e-05	< 1e-05	
A48C U49G C50A	< 1e-05		
U45A U57A	0.000159 ± 4.5e-05	0.000423 ± 7.9e-05	
U54C G60C C67G	< 1e-05		
G40U U65G G66A	9.33e-05 ± 1.9e-05	0.000269 ± 8.2e-05	
A36G G38U C68G	9.46e-05 ± 3.2e-05		3.1e-05 ± 1.5e-05
A15U G29A C68U	5.07e-05 ± 1.3e-05	7.12e-05 ± 2.1e-05	
A48C C50G C67U C68U	0.000151 ± 3.3e-05	0.000255 ± 8.7e-05	
A14U A48G G63C	< 1e-05		
U57C C67U C68A	8.67e-05 ± 4e-05		
C8G G66C	< 1e-05	< 1e-05	
A14C U56G C67G	0.000636 ± 0.00024	0.00165 ± 0.00073	0.0219 ± 0.0084
G7A G44U C67G	< 1e-05		
A1G A12U A64C	0.000103 ± 3.6e-05	0.000485 ± 0.00019	0.000643 ± 0.00015
A6U A15G A48U	< 1e-05		
A39U A48G G60C	< 1e-05	< 1e-05	
G13U G51U U55A	< 1e-05		

Reference: the supplement of paper PMC7125110
